What was measured:
[1] = system: HeLa Kyoto; assay: solubility in G1/S (NP-40 vs SDS abundance) (log2 ratio); higher = more soluble; conditions: cell cycle stage: G1/S
[2] = system: HeLa Kyoto; assay: melting temperature (median over replicates), in situ; higher = more thermally stable
[3] = system: HeLa Kyoto; assay: solubility change mitosis vs G1/S (difference of NP-40 vs SDS log2 ratios) (log2 ratio difference); higher = more soluble in mitosis
[4] = system: HeLa Kyoto; assay: thermal stability score vs G1/S (z-score of summed log2 fold changes over temperatures); higher = more thermally stable than in G1/S
[5] = cell cycle stage: early G1 (4.5 h after nocodazole release)
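Wherever melting temperature (median over replicates), in situ is given: HeLa Kyoto cells synchronized by double thymidine or nocodazole block, proteins quantified by TMT10plex mass spectrometry, three independent biological replicates.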
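Wherever solubility change mitosis vs G1/S (difference of NP-40 vs SDS log2 ratios) is given: synchronized HeLa Kyoto cells (double thymidine block for G1/S, nocodazole release for mitosis), protein amounts in NP-40 versus SDS lysates quantified by mass spectrometry, three biological replicates.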
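Wherever solubility in G1/S (NP-40 vs SDS abundance) is given: HeLa Kyoto cells arrested at G1/S by double thymidine block, proteins quantified by TMT10plex mass spectrometry in mild NP-40 versus SDS extracts, three biological replicates.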
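Wherever thermal stability score vs G1/S (z-score of summed log2 fold changes over temperatures) is given: synchronized HeLa Kyoto cells, proteins quantified by TMT10plex mass spectrometry, three biological replicates, mitosis taken 0.5 h after nocodazole release, G1/S directly after double thymidine block.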

Row | Sequence | solubility in G1/S (log2) [1] | melting temperature ([2]; cell cycle stage: G1/S) | melting temperature ([2]; cell cycle stage: mitosis) | solubility change mitosis (log2) [3] | thermal stability score [4, 5] | thermal stability score ([4]; cell cycle stage: mitosis)
1 | MLLAVLLLLPLPSSWFAHGHPLYTRLPPSALQVLSAQGTQALQAAQRSAQWAINRVAMEIQHRSHECRGSGRPRPQALLQDPPEPGPCGERRPSTANVTRAHGRIVGGSAAPPGAWPWLVRLQLGGQPLCGGVLVAASWVLTAAHCFVGAPNELLWTVTLAEGSRGEQAEEVPVNRILPHPKFDPRTFHNDLALVQLWTPVSPGGSARPVCLPQEPQEPPAGTACAIAGWGALFEDGPEAEAVREARVPLLSTDTCRRALGPGLRPSTMLCAGYLAGGVDSCQGDSGGPLTCSEPGPRPREVLFGVTSWGDGCGEPGKPGVYTRVAVFKDWLQEQMSASSSREPSCRELLAWDPPQELQADAARLCAFYARLCPGSQGACARLAHQQCLQRRRRCELRSLAHTLLGLLRNAQELLGPRPGLRRLAPALALPAPALRESPLHPARELRLHSGSRAAGTRFPKRRPEPRGEANGCPGLEPLRQKLAALQGAHAWILQVPSEHLAMNFHEVLADLGSKTLTGLFRAWVRAGLGGRHVAFSGLVGLEPATLARSLPRLLVQALQAFRVAALAEGEPEGPWMDVGQGPGLERKGHHPLNPQVPPARQP [PRSS56] | 0.296 | 53.2 °C | 53.3 °C | -0.116 | 1.67 | 3.49
2 | MPVAGSELPRRPLPPAAQERDAEPRPPHGELQYLGQIQHILRCGVRKDDRTGTGTLSVFGMQARYSLRDEFPLLTTKRVFWKGVLEELLWFIKGSTNAKELSSKGVKIWDANGSRDFLDSLGFSTREEGDLGPVYGFQWRHFGAEYRDMESDYSGQGVDQLQRVIDTIKTNPDDRRIIMCAWNPRDLPLMALPPCHALCQFYVVNSELSCQLYQRSGDMGLGVPFNIASYALLTYMIAHITGLKPGDFIHTLGDAHIYLNHIEPLKIQLQREPRPFPKLRILRKVEKIDDFKAEDFQIEGYNPHPTIKMEMAV [TYMS] | -0.0779 | 49.2 °C | 49 °C | -0.0717 | -0.449 | 1.58
3 | MDQCVTVERELEKVLHKFSGYGQLCERGLEELIDYTGGLKHEILQSHGQDAELSGTLSLVLTQCCKRIKDTVQKLASDHKDIHSSVSRVGKAIDKNFDSDISSVGIDGCWQADSQRLLNEVMVEHFFRQGMLDVAEELCQESGLSVDPSQKEPFVELNRILEALKVRVLRPALEWAVSNREMLIAQNSSLEFKLHRLYFISLLMGGTTNQREALQYAKNFQPFALNHQKDIQVLMGSLVYLRQGIENSPYVHLLDANQWADICDIFTRDACALLGLSVESPLSVSFSAGCVALPALINIKAVIEQRQCTGVWNQKDELPIEVDLGKKCWYHSIFACPILRQQTTDNNPPMKLVCGHIISRDALNKMFNGSKLKCPYCPMEQSPGDAKQIFF [RMND5A] | 0.298 | 51.1 °C |  | -0.047 | 0.294 | 0.672
4 | MKLKDTKSRPKQSSCGKFQTKGIKVVGKWKEVKIDPNMFADGQMDDLVCFEELTDYQLVSPAKNPSSLFSKEAPKRKAQAVSEEEEEEEGKSSSPKKKIKLKKSKNVATEGTSTQKEFEVKDPELEAQGDDMVCDDPEAGEMTSENLVQTAPKKKKNKGKKGLEPSQSTAAKVPKKAKTWIPEVHDQKADVSAWKDLFVPRPVLRALSFLGFSAPTPIQALTLAPAIRDKLDILGAAETGSGKTLAFAIPMIHAVLQWQKRNAAPPPSNTEAPPGETRTEAGAETRSPGKAEAESDALPDDTVIESEALPSDIAAEARAKTGGTVSDQALLFGDDDAGEGPSSLIREKPVPKQNENEEENLDKEQTGNLKQELDDKSATCKAYPKRPLLGLVLTPTRELAVQVKQHIDAVARFTGIKTAILVGGMSTQKQQRMLNRRPEIVVATPGRLWELIKEKHYHLRNLRQLRCLVVDEADRMVEKGHFAELSQLLEMLNDSQYNPKRQTLVFSATLTLVHQAPARILHKKHTKKMDKTAKLDLLMQKIGMRGKPKVIDLTRNEATVETLTETKIHCETDEKDFYLYYFLMQYPGRSLVFANSISCIKRLSGLLKVLDIMPLTLHACMHQKQRLRNLEQFARLEDCVLLATDVAARGLDIPKVQHVIHYQVPRTSEIYVHRSGRTARATNEGLSLMLIGPEDVINFKKIYKTLKKDEDIPLFPVQTKYMDVVKERIRLARQIEKSEYRNFQACLHNSWIEQAAAALEIELEEDMYKGGKADQQEERRRQKQMKVLKKELRHLLSQPLFTESQKTKYPTQSGKPPLLVSAPSKSESALSCLSKQKKKKTKKPKEPQPEQPQPSTSAN [DDX24] | -1.47 | 49.9 °C | 50.5 °C | 1.07 | -0.338 | 1.04
5 | MTGRAMDPLPAAAVGAAAEAEADEEADPPASDLPTPQAIEPQAIVQQVPAPSRMQMPQGNPLLLSHTLQELLARDTVQVELIPEKKGLFLKHVEYEVSSQRFKSSVYRRYNDFVVFQEMLLHKFPYRMVPALPPKRMLGADREFIEARRRALKRFVNLVARHPLFSEDVVLKLFLSFSGSDVQNKLKESAQCVGDEFLNCKLATRAKDFLPADIQAQFAISRELIRNIYNSFHKLRDRAERIASRAIDNAADLLIFGKELSAIGSDTTPLPSWAALNSSTWGSLKQALKGLSVEFALLADKAAQQGKQEENDVVEKLNLFLDLLQSYKDLCERHEKGVLHKHQRALHKYSLMKRQMMSATAQNREPESVEQLESRIVEQENAIQTMELRNYFSLYCLHQETQLIHVYLPLTSHILRAFVNSQIQGHKEMSKVWNDLRPKLSCLFAGPHSTLTPPCSPPEDGLCPH [SNX8] | 0.249 | 54 °C | 55.7 °C | -0.153 | -2.07 | -2.85
6 | MKLKQRVVLLAILLVIFIFTKVFLIDNLDTSAANREDQRAFHRMMTGLRVELAPKLDHTLQSPWEIAAQWVVPREVYPEETPELGAVMHAMATKKIIKADVGYKGTQLKALLILEGGQKVVFKPKRYSRDHVVEGEPYAGYDRHNAEVAAFHLDRILGFHRAPLVVGRFVNLRTEIKPVATEQLLSTFLTVGNNTCFYGKCYYCRETEPACADGDIMEGSVTLWLPDVWPLQKHRHPWGRTYREGKLARWEYDESYCDAVKKTSPYDSGPRLLDIIDTAVFDYLIGNADRHHYESFQDDEGASMLILLDNAKSFGNPSLDERSILAPLYQCCIIRVSTWNRLNYLKNGVLKSALKSAMAHDPISPVLSDPHLDAVDQRLLSVLATVKQCTDQFGMDTVLVEDRMPLSHL [FAM20B] | -0.162 | 51.8 °C | 53.3 °C | 0.0415 | 2.65 | 2.53
7 | MSPKRIAKRRSPPADAIPKSKKVKVSHRSHSTEPGLVLTLGQGDVGQLGLGENVMERKKPALVSIPEDVVQAEAGGMHTVCLSKSGQVYSFGCNDEGALGRDTSVEGSEMVPGKVELQEKVVQVSAGDSHTAALTDDGRVFLWGSFRDNNGVIGLLEPMKKSMVPVQVQLDVPVVKVASGNDHLVMLTADGDLYTLGCGEQGQLGRVPELFANRGGRQGLERLLVPKCVMLKSRGSRGHVRFQDAFCGAYFTFAISHEGHVYGFGLSNYHQLGTPGTESCFIPQNLTSFKNSTKSWVGFSGGQHHTVCMDSEGKAYSLGRAEYGRLGLGEGAEEKSIPTLISRLPAVSSVACGASVGYAVTKDGRVFAWGMGTNYQLGTGQDEDAWSPVEMMGKQLENRVVLSVSSGGQHTVLLVKDKEQS [RCC1] | -0.0854 | 48 °C | 49.1 °C | 0.0534 | 1.88 | 3.04
8 | MATTAAPAGGARNGAGPEWGGFEENIQGGGSAVIDMENMDDTSGSSFEDMGELHQRLREEEVDADAADAAAAEEEDGEFLGMKGFKGQLSRQVADQMWQAGKRQASRAFSLYANIDILRPYFDVEPAQVRSRLLESMIPIKMVNFPQKIAGELYGPLMLVFTLVAILLHGMKTSDTIIREGTLMGTAIGTCFGYWLGVSSFIYFLAYLCNAQITMLQMLALLGYGLFGHCIVLFITYNIHLHALFYLFWLLVGGLSTLRMVAVLVSRTVGPTQRLLLCGTLAALHMLFLLYLHFAYHKVVEGILDTLEGPNIPPIQRVPRDIPAMLPAARLPTTVLNATAKAVAVTLQSH [YIPF3] | -0.107 | 55.9 °C | 55.7 °C | -0.0133 | -2.34 | -3.63
9 | MSENLDNEGPKPMESCGQESSSALSCPTVSVPPAAPAALEEVEKEGAGAATGPGPQPGLYSYIRDDLFTSEIFKLELQNVPRHASFSDVRRFLGRFGLQPHKTKLFGQPPCAFVTFRSAAERDKALRVLHGALWKGRPLSVRLARPKADPMARRRRQEGESEPPVTRVADVVTPLWTVPYAEQLERKQLECEQVLQKLAKEIGSTNRALLPWLLEQRHKHNKACCPLEGVRPSPQQTEYRNKCEFLVGVGVDGEDNTVGCRLGKYKGGTCAVAAPFDTVHIPEATKQVVKAFQEFIRSTPYSAYDPETYTGHWKQLTVRTSRRHQAMAIAYFHPQKLSPEELAELKTSLAQHFTAGPGRASGVTCLYFVEEGQRKTPSQEGLPLEHVAGDRCIHEDLLGLTFRISPHAFFQVNTPAAEVLYTVIQDWAQLDAGSMVLDVCCGTGTIGLALARKVKRVIGVELCPEAVEDARVNAQDNELSNVEFHCGRAEDLVPTLVSRLASQHLVAILDPPRAGLHSKVILAIRRAKNLRRLLYVSCNPRAAMGNFVDLCRAPSNRVKGIPFRPVKAVAVDLFPQTPHCEMLILFERVEHPNGTGVLGPHSPPAQPTPGPPDNTLQETGTFPSS [TRMT2A] | -0.136 | 48.9 °C | 49.8 °C | 0.169 | 2.34 | 3.51
10 | MALSDEPAAGGPEEEAEDETLAFGAALEAFGESAETRALLGRLREVHGGGAEREVALERFRVIMDKYQEQPHLLDPHLEWMMNLLLDIVQDQTSPASLVHLAFKFLYIITKVRGYKTFLRLFPHEVADVEPVLDLVTIQNPKDHEAWETRYMLLLWLSVTCLIPFDFSRLDGNLLTQPGQARMSIMDRILQIAESYLIVSDKARDAAAVLVSRFITRPDVKQSKMAEFLDWSLCNLARSSFQTMQGVITMDGTLQALAQIFKHGKREDCLPYAATVLRCLDGCRLPESNQTLLRKLGVKLVQRLGLTFLKPKVAAWRYQRGCRSLAANLQLLTQGQSEQKPLILTEDDDEDDDVPEGVERVIEQLLVGLKDKDTVVRWSAAKGIGRMAGRLPRALADDVVGSVLDCFSFQETDKAWHGGCLALAELGRRGLLLPSRLVDVVAVILKALTYDEKRGACSVGTNVRDAACYVCWAFARAYEPQELKPFVTAISSALVIAAVFDRDINCRRAASAAFQENVGRQGTFPHGIDILTTADYFAVGNRSNCFLVISVFIAGFPEYTQPMIDHLVTMKISHWDGVIRELAARALHNLAQQAPEFSATQVFPRLLSMTLSPDLHMRHGSILACAEVAYALYKLAAQENRPVTDHLDEQAVQGLKQIHQQLYDRQLYRGLGGQLMRQAVCVLIEKLSLSKMPFRGDTVIDGWQWLINDTLRHLHLISSHSRQQMKDAAVSALAALCSEYYMKEPGEADPAIQEELITQYLAELRNPEEMTRCGFSLALGALPGFLLKGRLQQVLTGLRAVTHTSPEDVSFAESRRDGLKAIARICQTVGVKAGAPDEAVCGENVSQIYCALLGCMDDYTTDSRGDVGTWVRKAAMTSLMDLTLLLARSQPELIEAHTCERIMCCVAQQASEKIDRFRAHAASVFLTLLHFDSPPIPHVPHRGELEKLFPRSDVASVNWSAPSQAFPRITQLLGLPTYRYHVLLGLVVSLGGLTESTIRHSTQSLFEYMKGIQSDPQALGSFSGTLLQIFEDNLLNERVSVPLLKTLDHVLTHGCFDIFTTEEDHPFAVKLLALCKKEIKNSKDIQKLLSGIAVFCEMVQFPGDVRRQALLQLCLLLCHRFPLIRKTTASQVYETLLTYSDVVGADVLDEVVTVLSDTAWDAELAVVREQRNRLCDLLGVPRPQLVPQPGAC [TBCD] | -0.194 | 50 °C | 50.2 °C | -0.154 | -0.177 | 0.431
